Data from article PMC5906006 (PLoS ONE, 2018).
Values belong to the compound of their own block, whether it stands above or below them. Bridge positions count the residues as written; N and C are the ends. Square brackets hold non-standard residues; d marks the D form. Peptide text beside a SMILES is read from it. * marks the point of attachment. X1 = O=C(O)CN1CCN(CC(=O)O)CCN([C@H](CCC(=O)*)C(=O)O)CC1; dPhe(4-NHCONH2) = NC(=O)Nc1ccc(C[C@@H](N)C(=O)O)cc1; Dihydroorotyl(S) = O=C1C[C@@H](C(=O)*)NC(=O)N1; Phe(4-Cl) = N[C@@H](Cc1ccc(Cl)cc1)C(=O)O; Phe(4-NH2) = Nc1ccc(C[C@H](N)C(=O)O)cc1

Experiments:
[1] = Biodistribution in HEK-hsst2 tumor-bearing mice; conditions: female, Balb/c nude, mouse, in vivo, iv, total radioactivity
human sst2 receptors = target: T1, human sst2 receptors (Homo sapiens, UniProt P30874); assay: Saturation binding on HEK-hsst2 cells; conditions: 2 hours at +4 °C
T1 construct: expressed in transfected cells; host or cells: HEK-293 (HEK-hsst2), a gift from Prof; Schulz, University of Jena
T1 sequence (P30874 whole entry): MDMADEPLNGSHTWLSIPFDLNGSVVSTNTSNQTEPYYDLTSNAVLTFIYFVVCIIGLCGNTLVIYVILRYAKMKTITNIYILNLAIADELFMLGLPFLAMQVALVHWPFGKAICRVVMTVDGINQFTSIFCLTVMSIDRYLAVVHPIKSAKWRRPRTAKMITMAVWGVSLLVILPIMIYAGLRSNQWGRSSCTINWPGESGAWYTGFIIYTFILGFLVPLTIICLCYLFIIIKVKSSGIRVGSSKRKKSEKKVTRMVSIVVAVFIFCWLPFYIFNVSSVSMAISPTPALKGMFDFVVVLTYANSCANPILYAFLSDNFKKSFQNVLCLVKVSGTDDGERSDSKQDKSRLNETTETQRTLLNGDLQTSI
Procedure: The saturation binding experiments were performed with radioligand (^64/natCu-NODAGA-JR11 and ^64/natCu-DOTA-TATE) concentrations ranging from 0.5–75 nM and 0.5–90 nM, respectively, for 2 hours at +4 °C as described previously [24]. The Kd and Bmax values were calculated using GraphPad.

Compound: C[C@@H](O)[C@H](NC(=O)[C@@H]1CSSC[C@H](NC(=O)[C@@H](Cc2ccccc2)NC(=O)CN2CCN(CC(=O)O)CCN(CC(=O)O)CCN(CC(=O)O)CC2)C(=O)N[C@@H](Cc2ccc(O)cc2)C(=O)N[C@H](Cc2c[nH]c3ccccc23)C(=O)N[C@@H](CCCCN)C(=O)N[C@@H]([C@@H](C)O)C(=O)N1)C(=O)O [^64Cu-DOTA-TATE, [^64Cu-DOTA, Tyr^3, Thr^8]octreotide, metal not drawn, reference compound]
tissue uptake at 1 h ([1]; 10 pmol, Adrenal uptake): 4.7 ± 1.5 %ID/g
tissue uptake at 24 h ([1]; 10 pmol, Adrenal uptake): 0.7 ± 0.3 %ID/g
tissue uptake at 1 h ([1]; 10 pmol, Blood uptake): 0.7 ± 0.2 %ID/g
tissue uptake at 4 h ([1]; 10 pmol, Blood uptake): 0.6 ± 0.1 %ID/g
tissue uptake at 24 h ([1]; 10 pmol, Blood uptake): 0.5 ± 0.05 %ID/g
tissue uptake at 1 h ([1]; 10 pmol, Bone uptake): 1.6 ± 0.5 %ID/g
tissue uptake at 24 h ([1]; 10 pmol, Bone uptake): 0.8 ± 0.1 %ID/g
tissue uptake at 1 h ([1]; 10 pmol, Heart uptake): 1.1 ± 0.1 %ID/g
tissue uptake at 4 h ([1]; 10 pmol, Heart uptake): 1.2 ± 0.3 %ID/g
tissue uptake at 24 h ([1]; 10 pmol, Heart uptake): 1.1 ± 0.2 %ID/g
tissue uptake at 24 h ([1]; 10 pmol, Intestine uptake): 2 ± 0.3 %ID/g
tissue uptake at 1 h ([1]; 10 pmol, Kidney uptake): 4.8 ± 0.5 %ID/g
tissue uptake at 4 h ([1]; 10 pmol, Kidney uptake): 3 ± 0.6 %ID/g
tissue uptake at 1 h ([1]; 10 pmol, Liver uptake): 6.1 ± 1.2 %ID/g
tissue uptake at 4 h ([1]; 10 pmol, Liver uptake): 5.2 ± 1.6 %ID/g
tissue uptake at 24 h ([1]; 10 pmol, Liver uptake): 4.6 ± 0.6 %ID/g
tissue uptake at 1 h ([1]; 10 pmol, Lung uptake): 9.8 ± 2.6 %ID/g
tissue uptake at 4 h ([1]; 10 pmol, Lung uptake): 5.4 ± 1.4 %ID/g
tissue uptake at 1 h ([1]; 10 pmol, Muscle uptake): 0.3 ± 0.1 %ID/g
tissue uptake at 4 h ([1]; 10 pmol, Muscle uptake): 0.2 ± 0.03 %ID/g
tissue uptake at 24 h ([1]; 10 pmol, Muscle uptake): 0.3 ± 0.1 %ID/g
tissue uptake at 1 h ([1]; 10 pmol, Pancreas uptake): 24.6 ± 2.4 %ID/g
tissue uptake at 4 h ([1]; 10 pmol, Pancreas uptake): 4.4 ± 1 %ID/g
tissue uptake at 24 h ([1]; 10 pmol, Pancreas uptake): 0.95 ± 0.1 %ID/g
tissue uptake at 4 h ([1]; 10 pmol, Spleen uptake): 1.1 ± 0.4 %ID/g
tissue uptake at 24 h ([1]; 10 pmol, Spleen uptake): 1.2 ± 0.1 %ID/g
tissue uptake at 1 h ([1]; 10 pmol, Stomach uptake): 16.1 ± 1.7 %ID/g
tissue uptake at 4 h ([1]; 10 pmol, Stomach uptake): 10.6 ± 1.6 %ID/g
tissue uptake at 24 h ([1]; 10 pmol, Stomach uptake): 3.1 ± 0.3 %ID/g
tissue uptake at 1 h ([1]; 10 pmol, Tumor uptake): 20.3 ± 2.5 %ID/g
tissue uptake at 4 h ([1]; 10 pmol, Tumor uptake): 14.9 ± 1 %ID/g

Kd (human sst2 receptors): 5.7 ± 0.95 nM
Compound: C[C@@H](O)[C@@H]1NC(=O)[C@H](CCCCN)NC(=O)[C@@H](Cc2ccc(NC(N)=O)cc2)NC(=O)[C@H](Cc2ccc(NC(=O)[C@@H]3CC(=O)NC(=O)N3)cc2)NC(=O)[C@H](NC(=O)[C@H](Cc2ccc(Cl)cc2)NC(=O)CC[C@H](C(=O)O)N2CCN(CC(=O)O)CCN(CC(=O)O)CC2)CSSC[C@@H](C(=O)N[C@H](Cc2ccc(O)cc2)C(N)=O)NC1=O [^64Cu-NODAGA-JR11, metal not drawn] (X1-[Phe(4-Cl)][dC][Phe(4-NH2)](Dihydroorotyl(S))[dPhe(4-NHCONH2)]KTC[dY]-NH2; disulfide 2-7)
tissue uptake at 1 h ([1]; 10 pmol, Adrenal uptake): 4.8 ± 0.8 %ID/g
tissue uptake at 4 h ([1]; 10 pmol, Adrenal uptake): 3.5 ± 0.9 %ID/g
tissue uptake at 24 h ([1]; 10 pmol, Adrenal uptake): 1.5 ± 0.6 %ID/g
tissue uptake at 1 h ([1]; 10 pmol, Blood uptake): 0.6 ± 0.2 %ID/g
tissue uptake at 4 h ([1]; 10 pmol, Blood uptake): 0.1 %ID/g
tissue uptake at 24 h ([1]; 10 pmol, Blood uptake): 0.1 %ID/g
tissue uptake at 1 h ([1]; 10 pmol, Bone uptake): 0.7 ± 0.2 %ID/g
tissue uptake at 4 h ([1]; 10 pmol, Bone uptake): 0.8 ± 0.2 %ID/g
tissue uptake at 24 h ([1]; 10 pmol, Bone uptake): 0.4 ± 0.2 %ID/g
tissue uptake at 1 h ([1]; 10 pmol, Heart uptake): 0.5 ± 0.1 %ID/g
tissue uptake at 4 h ([1]; 10 pmol, Heart uptake): 0.3 ± 0.1 %ID/g
tissue uptake at 24 h ([1]; 10 pmol, Heart uptake): 0.2 ± 0.1 %ID/g
tissue uptake at 1 h ([1]; 10 pmol, Intestine uptake): 0.9 ± 0.4 %ID/g
tissue uptake at 4 h ([1]; 10 pmol, Intestine uptake): 0.7 ± 0.1 %ID/g
tissue uptake at 24 h ([1]; 10 pmol, Intestine uptake): 0.4 %ID/g
tissue uptake at 1 h ([1]; 10 pmol, Kidney uptake): 10.3 ± 0.7 %ID/g
tissue uptake at 4 h ([1]; 10 pmol, Kidney uptake): 6.9 ± 0.9 %ID/g
tissue uptake at 24 h ([1]; 10 pmol, Kidney uptake): 2.2 ± 0.6 %ID/g
tissue uptake at 1 h ([1]; 10 pmol, Liver uptake): 1.7 ± 0.2 %ID/g
tissue uptake at 4 h ([1]; 10 pmol, Liver uptake): 0.7 ± 0.3 %ID/g
tissue uptake at 24 h ([1]; 10 pmol, Liver uptake): 0.3 ± 0.1 %ID/g
tissue uptake at 1 h ([1]; 10 pmol, Lung uptake): 3 ± 1 %ID/g
tissue uptake at 4 h ([1]; 10 pmol, Lung uptake): 0.8 ± 0.2 %ID/g
tissue uptake at 24 h ([1]; 10 pmol, Lung uptake): 0.5 ± 0.1 %ID/g
tissue uptake at 1 h ([1]; 10 pmol, Muscle uptake): 0.4 %ID/g
tissue uptake at 4 h ([1]; 10 pmol, Muscle uptake): 0.1 ± 0.1 %ID/g
tissue uptake at 24 h ([1]; 10 pmol, Muscle uptake): 0.04 %ID/g
tissue uptake at 1 h ([1]; 10 pmol, Pancreas uptake): 5.6 ± 0.6 %ID/g
tissue uptake at 4 h ([1]; 10 pmol, Pancreas uptake): 0.4 ± 0.1 %ID/g
tissue uptake at 24 h ([1]; 10 pmol, Pancreas uptake): 0.2 %ID/g
tissue uptake at 1 h ([1]; 10 pmol, Spleen uptake): 0.9 ± 0.2 %ID/g
tissue uptake at 4 h ([1]; 10 pmol, Spleen uptake): 1.2 ± 0.2 %ID/g
tissue uptake at 24 h ([1]; 10 pmol, Spleen uptake): 0.9 ± 0.1 %ID/g
tissue uptake at 1 h ([1]; 10 pmol, Stomach uptake): 4.9 ± 1.6 %ID/g
tissue uptake at 4 h ([1]; 10 pmol, Stomach uptake): 0.9 ± 0.2 %ID/g
tissue uptake at 24 h ([1]; 10 pmol, Stomach uptake): 0.4 %ID/g
tissue uptake at 1 h ([1]; 10 pmol, Tumor uptake): 20.6 ± 3.7 %ID/g
tissue uptake at 4 h ([1]; 10 pmol, Tumor uptake): 19 ± 3.1 %ID/g
tissue uptake at 24 h ([1]; 10 pmol, Tumor uptake): 7.7 ± 2.5 %ID/g
tissue uptake at 1 h ([1]; 200 pmol, Adrenal uptake): 2.1 ± 1.2 %ID/g
tissue uptake at 1 h ([1]; 200 pmol, Blood uptake): 0.5 ± 0.1 %ID/g
tissue uptake at 1 h ([1]; 200 pmol, Bone uptake): 0.5 ± 0.3 %ID/g
tissue uptake at 1 h ([1]; 200 pmol, Heart uptake): 0.3 ± 1 %ID/g
tissue uptake at 1 h ([1]; 200 pmol, Intestine uptake): 0.5 ± 0.1 %ID/g
tissue uptake at 1 h ([1]; 200 pmol, Kidney uptake): 10.6 ± 1.6 %ID/g
tissue uptake at 1 h ([1]; 200 pmol, Liver uptake): 1.6 ± 0.3 %ID/g
tissue uptake at 1 h ([1]; 200 pmol, Lung uptake): 0.4 ± 0.2 %ID/g
tissue uptake at 1 h ([1]; 200 pmol, Muscle uptake): 0.2 %ID/g
tissue uptake at 1 h ([1]; 200 pmol, Pancreas uptake): 1.7 ± 0.3 %ID/g
tissue uptake at 1 h ([1]; 200 pmol, Spleen uptake): 0.7 ± 0.1 %ID/g
tissue uptake at 1 h ([1]; 200 pmol, Stomach uptake): 1.7 ± 0.7 %ID/g
tissue uptake at 1 h ([1]; 200 pmol, Tumor uptake): 16.4 ± 0.7 %ID/g
tissue uptake at 1 h ([1]; 1000 pmol, Adrenal uptake): 1.4 ± 0.6 %ID/g
tissue uptake at 1 h ([1]; 1000 pmol, Blood uptake): 0.4 ± 0.1 %ID/g
tissue uptake at 1 h ([1]; 1000 pmol, Bone uptake): 0.8 ± 0.4 %ID/g
tissue uptake at 1 h ([1]; 1000 pmol, Heart uptake): 0.3 ± 0.1 %ID/g
tissue uptake at 1 h ([1]; 1000 pmol, Intestine uptake): 0.3 ± 0.1 %ID/g
tissue uptake at 1 h ([1]; 1000 pmol, Kidney uptake): 7.9 ± 0.4 %ID/g
tissue uptake at 1 h ([1]; 1000 pmol, Liver uptake): 1 ± 0.2 %ID/g
tissue uptake at 1 h ([1]; 1000 pmol, Lung uptake): 0.3 ± 0.1 %ID/g
tissue uptake at 1 h ([1]; 1000 pmol, Muscle uptake): 0.3 ± 0.2 %ID/g
tissue uptake at 1 h ([1]; 1000 pmol, Pancreas uptake): 0.8 ± 0.2 %ID/g
tissue uptake at 1 h ([1]; 1000 pmol, Spleen uptake): 0.5 ± 0.1 %ID/g
tissue uptake at 1 h ([1]; 1000 pmol, Stomach uptake): 0.9 ± 0.2 %ID/g
tissue uptake at 1 h ([1]; 1000 pmol, Tumor uptake): 9.7 ± 2.4 %ID/g
tissue uptake at 1 h ([1]; 2000 pmol, Adrenal uptake): 1.9 ± 0.7 %ID/g
tissue uptake at 1 h ([1]; 2000 pmol, Blood uptake): 0.3 ± 0.1 %ID/g
tissue uptake at 1 h ([1]; 2000 pmol, Bone uptake): 0.2 %ID/g
tissue uptake at 1 h ([1]; 2000 pmol, Heart uptake): 0.2 ± 0.1 %ID/g
tissue uptake at 1 h ([1]; 2000 pmol, Intestine uptake): 0.4 ± 0.1 %ID/g
tissue uptake at 1 h ([1]; 2000 pmol, Kidney uptake): 8.1 ± 0.7 %ID/g
tissue uptake at 1 h ([1]; 2000 pmol, Liver uptake): 0.8 ± 0.1 %ID/g
tissue uptake at 1 h ([1]; 2000 pmol, Lung uptake): 0.3 %ID/g
tissue uptake at 1 h ([1]; 2000 pmol, Muscle uptake): 0.2 %ID/g
tissue uptake at 1 h ([1]; 2000 pmol, Pancreas uptake): 0.6 ± 0.1 %ID/g
tissue uptake at 1 h ([1]; 2000 pmol, Spleen uptake): 0.6 ± 0.1 %ID/g
tissue uptake at 1 h ([1]; 2000 pmol, Stomach uptake): 0.8 ± 0.1 %ID/g
tissue uptake at 1 h ([1]; 2000 pmol, Tumor uptake): 9.2 ± 0.4 %ID/g
